The values below come from PMC6549136.

In this assay the target is Rpc31, endogenous in hmt1Δ yeast cells (hypomethylated) (S. cerevisiae (endogenous in yeast cells)) (UniProt P17890). Briefly: co-IP; α-Rpc31 antibody cross-linked to magnetic beads; yeast lysates at 10 mg/ml, 2 h at 4°C; three washes with PBS, 0.5% Triton X-100, 2.5 mM MgCl2; immunoblot; cells before and after treatment with CPZ for 1 h.
UniProt P17890, sequence (P17890 whole entry, stated change not applied): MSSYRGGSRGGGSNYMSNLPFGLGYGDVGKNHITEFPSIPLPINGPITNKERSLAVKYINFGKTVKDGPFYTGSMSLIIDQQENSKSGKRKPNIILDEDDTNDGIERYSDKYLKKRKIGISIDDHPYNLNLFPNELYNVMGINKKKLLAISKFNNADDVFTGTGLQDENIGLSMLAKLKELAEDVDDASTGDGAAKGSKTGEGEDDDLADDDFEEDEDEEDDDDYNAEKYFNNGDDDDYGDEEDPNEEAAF

As to “Myc-tagged Maf1-7SA (from UniProt P41910 1-395) (natural protein)”, the association relative to that in WT cells, after CPZ (% lower than in WT cells) worked out at 40.
